Measured values published in the NTF2 design screens of Basanta et al. (2020).

Assay: protease stability score; higher = more stable; yeast display proteolysis, trypsin and chymotrypsin;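 note: log10 excess protease needed over predicted unfolded state with 0 meaning unfolded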

Sequence	protease stability score
DEQERAQEALRRFLRVFQEGDPDRARQQADKDVQMVVGDKEYEGREQVSRAIESLRERVDEFHITVRRITVSGNRVVVDAKLKLNINGKEDDVTLKLVIDVSGDKISIKRVEVR	1.12
DEQEVREAAEVIVTGNEEQLRDNADPNVKLQVGDERYHGREHFVRMISKFQKQVDHRSVDHFHVKGDKVRINMVMHINGQHVVLQINAQIHNGRIKSMEIKVRDEKDKRILDQVEG	1.76
DEQHDREMVSRLKTALQHGDPDELVELADENARVEIGEKTVHGRHQIREQAKRWRERVDHVQIEDVDVQNGQARVQMTVDHNGRTRKEVVQMTAHNGTVESLRFQSQ	-0.216
DEQIVHRAKEMDKAFNRGDPDLFNKMADENARVEVGDNVLNGRSDYKRYMDQVRKDLNVEIKSVHHQKRPNHARVKVDQVMNHNGQPRRRHIDIKIRAHNGTAKNIHFREDG	-0.326
DEQKDAERAIEALRVMLQGDDDSVRKMVDPNATLTVGDTEYKGREEFVKYARTLRRRADHFRIDTVHVEGDTAVMQAQVNVNGKTKTIRINVRAHNGRVVHVHVDPDQLKRIES	0.831
DEQKDDKRSKDIKKQVEKGNEHEILKLFDKDAKVRVGDKVVQGRESIKDEIHHLRRRVDNIEVKEVHAQGDKVTVDVQVDVNGVQIRQVLHIQMNNGKVTDAKVEFTNEEQLRQMHG	0.099
DEQKDEEIRRVIENNDWTEVKELADENVKASVGDKRYHGREEMEKFWKIVHDRADHIEYQDIHVHNGQFNAQVVINVNGQELDVQITMRAENGKITNMSIHATSEEVKERIKEMFS	0.73
DEQKEAEDIINTWREVLKDNDTDKARELADKHVRVVVGDKELHGREDFVRYFHEVAHRVDHIDIDVLDLTVHNGRIHFEADAVADVNGRKDTFVIRMVWQSQGDKHNMQEMHVP	-0.09
DEQKEMKRFANQFNSAIRHGDEKKMADLFDPNARMEVGDTSWNGRRNLEKEWKRRNETIDHARVHLQDVSVDGNSATVVFVLVENVNGEERNDVYVFVAVKHNGKIVIDHMTQK	0.159
DEQKERDKAKKIARNFQKNNEHRFEEMMDPNVKFVYGDKEVNGRDTYRKNLHELMTRADSVDIDHVDVRNGRVNVNLVVEVNGNRAEDRVQFTVHNGHIVKVNIDPKVMETAKS	-0.326
DEQKIKELLYKAAEAYINGNDELVRKLLKDDGKLEAGDYEYRGVDQVVKVAQDFKKYGVELEIKNYKYDGDRLDVEVELHLGGTTWKFTVTVQADGGKVDKVQFHFSEEARKRIQDG	0.447
DEQKLAEDLAKEIIKALETGNSHRLHELMDENARLRVGDKDYTGDHRIAKWMKHKRDRVDRVEATIQEIDADGDKVTIVIEIVFDHNGRRERVIVDARAEIRGDKVRMKELHWS	-0.101
DEQKQAHDLLRQLDEAMRENDPDTMRDLFDKDAHVKVGDKEFRGTQKVREFNEELKRQADHFSVDVKRMETRPGHFNVQLVLHMETNGRTDHLKFRVRMRVVNGRAVVVTLHQG	0.692
DEQKQRDFAHTYKDVFNTGDPDEQRKMVDPNARAQVGDNDFHGDEEFDKWAEERRDRVDHVEIRSMSVHGNKVSMDVDVVYDGRRVRFSMRMEYHNGRFKHFKVNPDSQRKLEG	0.615
DEQKTRQLEEVKKQLEHGNEREAKKNFDENVHINVGDKQIHGMHDAAREMATSWTQIRNEMTITRVHVRGDKIEIRASMVQNTNGRPRKAKVHIDVRINNGKIKRVTVKYDG	0.181
DEQLNKHFVRLMQNNDFEELVRNADKDVRVRIGNKEYQGREEANTALKTFHKQVDKLTIRSYDYHNGSAKIDLEVRFNGQKFRFVVTARLHNGKMKSMRINFTNPEDQKQLDRDMS	1.41
DEQLRDRVTQLFKVWQTGDPKKVSEMFDKDARLEYGDKTVHGMEEARHQQDTRRREARLSLDIRSINVQGNQVEIDVRIEEDENGKPDTKQVTIRIRARNGRIHNAKLQDDG	0.1
DEQLVKILQRFRKAMEHGDPKEAQKYFDPNAEFVYGDKEIHGREQVNTWIHTFMRSIRVDIKSLTVRASGNKAHIQYSAVYEENGRPKTAHFHMTVQVTNGKIKHADVKYRG	1.1

Sequence	protease stability score
DEQNEAKRLVEKLQSIVKSGDEEEWMKQFDENVKVSVGDKTVHGREDMVKQYQQHVKRADTMELQVNEYSVHNGRVSIRYKMRVDVNGQRHTTEAHVDFRNVNGRFKAQSVNQK	0
DEQNLQDAAQRVDEVLRKGNEEDVTKMMDKDATMTVGDKVIHGRSKVRQQVRRLHEQVDHQEVEYVTAHNGRIKINMQADVNGQSLTFTVHIKVRNGRVKEIQIDPDYKRNLDR	-0.224
DEQNQIKKIADDLETAARTNDPDKLLNMVDPNAKITYGDEEVHGRREAKRWLKEVNDHVDHMHVDIKRVHASGDKFTLRYRLVLVQNGKKDTTRVVATLRRTDGRVQIQSIDSG	0.033
DEQQAKRVAEEFNRVLQTGDNRKAMQLADKDVKLHVGDKDVHGRETMMKLVRKERDRVDHVEIKEVTIQGNKIDVILTVVVNGRHKEKHYVLHLHNGRIEDLSVRST	0.005
DEQRIADNLDERFRRVMENNNEDELRKLFDKDARVRVGDKTLHGREEVDKRLREILQRADHIDIKVNDIHVRGDKINIHFKIRIVVDGRDRFYTAVVRADVHNGEAKIVELKQS	0.213
DEQRQAEEWVDKLESELHDGDFTKFANMADENARIVIGDKEIHGRENLQEHAKELKHRVDHVEMHVRHLYVTNGTLTVDVDMVLNHNGQRDKRRVVIVATSENGKFRAQHVTYS	1.05
DEQRYRELMETAFHLVISGDEDTLDQIGKPNMEYHYVDRTLHGKDVLRVLVKIVKRVGAEARVEEAEVNGDTARAKFQYRKGDNTVQTDAEVKYEGDQIKKARVRLNDEVRKVLKDG	0.174
DEQSEAEKFARDIQKIANHNNFERLARMADKDVKYNVGDKVITGEEKAIEHHRRLQKQFDSMRLEIESVRVQGEKIVVVARYTVEVNGTTRSERFVLVAEVHNGTIRIKTVQQG	-0.167
DEQSVAEELFENLQDAVRENNPDEYKKLVDPNVNFDVGDKKVHGREQASEKFRQDLERADHIDMKVTSLRVDNGRAQADVRVTRVINGESETVEYILRFEVHGDEAVVKSQHDK	0.45
DEQTAAKKANELAEAISTGDPERVMELADKDVKVVVGDKTYHGKEDLREMAKRFRDRVDHAQIDSVTNDGEHAKIHMRVEVNGHTVEIDLVIEARNGHAKHLQVDPDDQRKLEG	0.919
DEQTHAEELARNFVTAIRTNNDQDIRDLFDKDARVEVGDKTIHGRENIARSIITIAKRVDSVDIRIQHVEVQGDKINIKMERRYDHNGQEHKKDLTMVARLTNGHMRIKVVKMD	0.885
DEQTKAERFVQRVEEILKHGDEKKYAHLADKNVKVKYGDKEWHGREHWEKEVKKTRDKVDDIRIDYKELQVHNGKVDVRFQVRNNHNGKNESRDASYTLDDHNGRIRIQSMHVK	-0.009
DEQTKAQQFAEDVVKANQQNDKDRLTEQFDKNARVQVGEKEVHGREHIMEELIKLMTEADKVDVKVRHVHAQGDKVHLDIHFRMRVNGQDHDSRMTIVARNSNGTVVIESVDVK	1.19
DEQVLRVLNEYLEDLKRNNEERLRKLADPNVKFQVGDKTLHGMEDAVNHWRHLLDHMELRIDITEVNVSNGRAVVNARASQNVNGRPNDNEVQIVAEAHNGTLKFVEWRFDPDRQRKIDS	0.114
DEQVQKQFKEAMRNREKGDKDKVVENFDKHVKVSVGDRTYHGMDDIARRQNEHMKEIRVEYRDVKMSVDNGKIVIHVRQQLEDNGEPREFSYTAEANATNGRIKSYRVDMDPEQVREVDR	-0.215
DEQWLNRLNRVFEHNNEEDLIKNMDPNVRVEIGDKRVRGRHKVKEALDRLKEEADHLQLKSVHVQGDKVSATMEMVVNGKHVQMTVTIEFTNGRIKNQRYKATDEKDKKVINDIMG	0.34
DERAADAIERLLKAMKDNDPSELSKQADENVHFDVGEKKYHGMETYARTVAKERHDAEQTYRLKDYRVDENHVSFNMRVVQTNNGKPVDVEAILRANVKGDKVKSMRIDEHK	-0.23
DERAAQTAVDLMKTNNERDRVKMADENVRYNVGDKTVHGREEWKKFAEQQRTSIDHMKIDDVKHHNGRIQVDMVVVVNGKKFRFVLQATVHNGKFKYFQRKVRDDEIRKILRRINK	0.235
